Laboratory results taken from publication PMC5498155 (Bioorganic & medicinal chemistry, 2016).
“Also recorded” adds a separate entry of the source.

Molecular target: CXCR4 (Homo sapiens, UniProt P61073)
Assay: Competitive CXCR4 binding assay
Conditions: CHO cells stably transfected with CXCR4; 12G5 antibody competition

Sequence of CXCR4 (P61073 whole entry): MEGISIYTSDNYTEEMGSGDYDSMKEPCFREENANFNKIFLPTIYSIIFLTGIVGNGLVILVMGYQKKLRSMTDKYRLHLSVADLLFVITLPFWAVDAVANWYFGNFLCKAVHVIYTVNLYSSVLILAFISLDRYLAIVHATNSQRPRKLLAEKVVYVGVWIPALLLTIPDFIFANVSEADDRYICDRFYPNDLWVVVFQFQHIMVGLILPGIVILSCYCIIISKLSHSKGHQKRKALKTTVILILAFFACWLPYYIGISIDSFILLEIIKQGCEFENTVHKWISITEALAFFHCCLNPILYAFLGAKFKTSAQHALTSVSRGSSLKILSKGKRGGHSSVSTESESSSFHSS

With SDF-1α1–8 (KPVSLSYR) [ligand 19] the “CXCR4 binding activity (in words)” value was “very low CXCR4 binding affinity; also recorded: No binding”.
